Substrate in series [1]: CC(=O)[C@@H](O)[C@H](O)COP(=O)(O)O
The series is described as follows: purified protein. In kind it is biochemical, Acinetobacter baumannii. The following applies: NADPH, Mg2+.

Substrate in series [2]: CC(=O)[C@@H](O)[C@H](O)COP(=O)(O)O
Put plainly: purified protein. The following applies: NADPH, Mg2+. In kind it is biochemical, Klebsiella pneumoniae.

Among the data in publication PMC8594541 are Km and kcat values, retold here.

B1: 1-deoxy-D-xylulose 5-phosphate reductoisomerase (AbIspC) (Acinetobacter baumannii AB307-0294) (protein)
chain: MTQSVCILGVTGSIGRSTLKILGQHPDKYSVFAVSAHSRISELVEICKQFRPKVVVVPEQKIAELKTLFAQQNISDIDVLAGQEGLVDIASHTDVDIVMAAIVGAAGLLPTLAAVKAGKRVLLANKEALVMSGEIMMQAARDHQALLLPVDSEHNAIFQSLPHNYLQADRTGQPQLGVSKILLTASGGPFLNHSLEQLVHVTPQQACKHPNWSMGQKISVDSATLMNKGLELIEACHLFSISEHFVTVVVHPQSIIHSMVQYVDGSTLAQMGNPDMCTPIAHALAWPERLQTNVPALDLFEYSQLNFQAPDTQKFPALNLARQAMRAGGLAPTILNAANEIAVEAFLMERIGFTSIPQVVEHTLEKLENAAAESIECILDKDKVARSVAQQYISSIGG
B1: in “purified protein [1]”, the Km was 127.6 µM and the kcat is 1.92 ± 0.03 s⁻¹.

B2: 1-deoxy-D-xylulose 5-phosphate reductoisomerase (KpIspC) (Klebsiella pneumoniae subsp. pneumoniae MGH 78578) (protein)
chain: MKQLTVLGSTGSIGCSTLDVVRHNPGRFSVAALVAGKNVDRMVEQCLEFTPRYAVMDDAQSAERLRTRLHEHGSRTEVLSGQQAAAEVAALDEVDQVMAAIVGAAGLVPTLAAIRAGKTVLLANKESLVTCGRLFMEAVQQSGARLLPVDSEHNAIFQSMPETIQQHLGYADLAQNGVSSILLTGSGGPFRETAVAELAAMTPDQACRHPNWSMGRKISVDSATMMNKGLEYIEARWLFNASAQQMEVLIHPQSVIHSMVRYQDGSVLAQLGEPDMRTPIAHTMGWPQRLNSGVKPLDFCQLSNLSFSAPDYTRYPCLKLAMDAFDVGQAATTTLNAANEESVAAFLHGDIRFTDIAAVNLAVLDKMDLQEPQSIDDVLVIDAEARAIAHQQLQRLVAQA
For B2, in “purified protein [2]”, the Km was 155.5 µM and the kcat was 2.21 ± 0.06 s⁻¹.
